Data reported in patent US20240116985A1, “STAPLED PEPTIDES AND METHODS THEREOF” (priority 2020, published 2024).
Starred links: 1 amine or outer side, 2 acyl side, 3 side chain; linkers in the order of their positions; H or OH if unused. Positions of bridges follow the written chain, without caps; N, C: chain ends. Non-standard residues stand in square brackets, D forms with d. Primed or numbered codes have the meaning given here. *: point of attachment. PyrS2″ = (S)-3-amino-1-((pent-4-en-1-yloxy)carbonyl)pyrrolidine-3-carboxylic acid (stapling residue), C=CCCCOC(=O)N1CC[C@@](N[*:1])(C(=O)[*:2])C1; SeN″ = (S)-5-(((allyloxy)carbonyl)(methyl)amino)-2-amino-2-methylpentanoic acid (stapling residue), C=CCOC(=O)N(C)CCC[C@](C)(N[*:1])C(=O)[*:2]; B5(4) = 2,2-bis(4-pentenyl)glycine = 2-amino-2-(pent-4-en-1-yl)hept-6-enoic acid (stitching residue), C=CCCCC(CCCC=C)(N[*:1])C(=O)[*:2]; B5(5) = 2,2-bis(4-pentenyl)glycine, 2-amino-2-(pent-4-en-1-yl)hept-6-enoic acid (stitching residue), C=CCCCC(CCCC=C)(N[*:1])C(=O)[*:2]; TfeGA = (S)-2-amino-3-((carboxymethyl)(2,2,2-trifluoroethyl)amino)propanoic acid, O=C([C@H](CN(CC(=O)[*:3])CC(F)(F)F)N[*:1])[*:2]; B5(3) = 2,2-bis(4-pentenyl)glycine (stitching residue), C=CCCCC(CCCC=C)(N[*:1])C(=O)[*:2]; B5 = 2-amino-2-(pent-4-en-1-yl)hept-6-enoic acid, C=CCCCC(CCCC=C)(N[*:1])C(=O)[*:2]; Phe(3-CF3) = N[C@@H](Cc1cccc(C(F)(F)F)c1)C(=O)O; Phe(3-COOH) = N[C@@H](Cc1cccc(C(=O)O)c1)C(=O)O; Phe(2-Cl) = N[C@@H](Cc1ccccc1Cl)C(=O)O; Phe(3-F) = N[C@@H](Cc1cccc(F)c1)C(=O)O; Phe(3-Me) = Cc1cccc(C[C@H](N)C(=O)O)c1; 1Nal = N[C@@H](Cc1cccc2ccccc12)C(=O)O; 2Nal = N[C@@H](Cc1ccc2ccccc2c1)C(=O)O; Ala(cPent) = N[C@@H](CC1CCCC1)C(=O)O; Bta = N[C@@H](Cc1csc2ccccc12)C(=O)O; αAllylPro = C=CC[C@@]1(C(=O)O)CCCN1; tBuAla = CC(C)(C)C[C@H](N)C(=O)O; 2Thi = N[C@@H](Cc1cccs1)C(=O)O; 3Thi = N[C@@H](Cc1ccsc1)C(=O)O; S8 = C=CCCCCCC[C@](C)(N)C(=O)O; Butoxycarbonyl = CCCCOC(=O)*; hSer = N[C@@H](CCO)C(=O)O; Nle = CCCC[C@H](N)C(=O)O

Legend:
[1] = target: full-length beta-Catenin (Uniprot ID P35222) (Homo sapiens (Human)) (UniProt P35222); test: fluorescence polarization competition; full-length beta-catenin + 5FAM-TCF4(10-53) probe
Target sequence in this assay (P35222 whole entry, the tested form may be a part): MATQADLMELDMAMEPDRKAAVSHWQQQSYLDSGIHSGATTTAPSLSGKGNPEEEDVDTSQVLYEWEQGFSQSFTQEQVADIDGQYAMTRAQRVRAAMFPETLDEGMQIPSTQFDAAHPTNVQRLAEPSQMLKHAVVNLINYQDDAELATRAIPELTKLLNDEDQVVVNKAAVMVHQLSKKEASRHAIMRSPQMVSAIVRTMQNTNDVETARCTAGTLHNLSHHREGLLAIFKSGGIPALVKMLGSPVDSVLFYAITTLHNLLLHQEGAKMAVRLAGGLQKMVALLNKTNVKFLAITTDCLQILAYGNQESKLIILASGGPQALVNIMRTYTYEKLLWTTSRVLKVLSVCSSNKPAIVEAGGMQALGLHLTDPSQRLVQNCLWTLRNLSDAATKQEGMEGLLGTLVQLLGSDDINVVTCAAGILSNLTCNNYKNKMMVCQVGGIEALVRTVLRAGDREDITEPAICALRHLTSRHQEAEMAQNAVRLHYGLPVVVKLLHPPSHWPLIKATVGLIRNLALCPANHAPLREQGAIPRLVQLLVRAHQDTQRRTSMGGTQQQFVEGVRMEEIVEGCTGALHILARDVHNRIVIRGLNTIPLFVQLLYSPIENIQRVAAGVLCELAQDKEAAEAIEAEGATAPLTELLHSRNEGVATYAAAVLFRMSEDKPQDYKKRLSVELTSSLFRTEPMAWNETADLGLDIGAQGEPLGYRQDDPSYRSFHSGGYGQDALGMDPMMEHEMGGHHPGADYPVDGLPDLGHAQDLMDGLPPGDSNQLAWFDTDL

[2] = target: full-length beta-Catenin (Uniprot ID P35222) (Homo sapiens (Human)) (UniProt P35222); test: fluorescence polarization competition against 5FAM-TCF4(10-53) on full-length beta-catenin
Target sequence in this assay (P35222 whole entry, the tested form may be a part): as above

[3] = target: full-length beta-Catenin (Uniprot ID P35222) (Homo sapiens (Human)) (UniProt P35222); test: fluorescence polarization competition; full-length beta-catenin, 5FAM-TCF4(10-53) probe displaced
Target sequence in this assay (P35222 whole entry, the tested form may be a part): as above

[4] = target: full-length beta-Catenin (Uniprot ID P35222) (Homo sapiens (Human)) (UniProt P35222); test: fluorescence polarization competition; 10 nM full-length beta-catenin + 10 nM 5FAM-TCF4(10-53) probe, peptide titrated
Target sequence in this assay (P35222 2-781 limits assumed): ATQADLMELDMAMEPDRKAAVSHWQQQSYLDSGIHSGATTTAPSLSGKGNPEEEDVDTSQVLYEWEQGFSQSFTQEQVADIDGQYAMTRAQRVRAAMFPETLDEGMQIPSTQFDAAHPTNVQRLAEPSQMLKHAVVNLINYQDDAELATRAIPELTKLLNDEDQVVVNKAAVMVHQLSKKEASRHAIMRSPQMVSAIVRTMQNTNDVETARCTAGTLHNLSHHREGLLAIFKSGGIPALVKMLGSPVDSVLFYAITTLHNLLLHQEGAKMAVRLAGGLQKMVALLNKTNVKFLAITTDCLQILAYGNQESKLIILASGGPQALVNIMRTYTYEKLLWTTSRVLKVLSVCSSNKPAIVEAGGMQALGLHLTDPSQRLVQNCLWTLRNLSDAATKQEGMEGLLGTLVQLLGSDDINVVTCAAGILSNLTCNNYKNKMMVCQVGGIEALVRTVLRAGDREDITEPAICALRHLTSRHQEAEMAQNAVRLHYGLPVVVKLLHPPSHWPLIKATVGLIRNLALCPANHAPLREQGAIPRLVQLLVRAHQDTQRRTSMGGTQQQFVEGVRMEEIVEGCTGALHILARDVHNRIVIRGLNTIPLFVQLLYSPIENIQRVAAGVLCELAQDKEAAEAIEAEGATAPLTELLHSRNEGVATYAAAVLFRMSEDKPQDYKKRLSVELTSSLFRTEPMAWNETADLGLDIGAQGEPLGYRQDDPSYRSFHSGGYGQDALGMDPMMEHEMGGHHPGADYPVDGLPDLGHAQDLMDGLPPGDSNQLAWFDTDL

[5] = target: full-length beta-Catenin (Uniprot ID P35222) (Homo sapiens (Human)) (UniProt P35222); test: fluorescence polarization competition; full-length beta-catenin with 5FAM-labeled TCF4 (residues 10-53) probe as competitor
Target sequence in this assay (P35222 whole entry, the tested form may be a part): as the sequence (P35222 whole entry, the tested form may be a part) above

[6] = target: full-length beta-Catenin (Uniprot ID P35222) (Homo sapiens (Human)) (UniProt P35222); test: fluorescence polarization competition; 10 nM full-length beta-catenin, competitor 10 nM 5FAM-TCF4(10-53)
Target sequence in this assay (P35222 whole entry, the tested form may be a part): as above

[7] = target: full-length beta-Catenin (Uniprot ID P35222) (Homo sapiens (Human)) (UniProt P35222); test: fluorescence polarization competition against 5FAM-TCF4(10-53), full-length beta-catenin
Target sequence in this assay (P35222 whole entry, the tested form may be a part): as above

Binder | IC50 [3] [nM] | IC50 [5] [nM] | further results
Ac-[αAllylPro]D[tBuAla][B5(3)]DTAAFT[PyrS2″]F[1Nal]S-NH2 (staple 1-4, 4-11) [I-1272] | – | – | EC50 [1]: 331 nM; IC50 [2]: 331 nM
Ac-[αAllylPro]D[tBuAla][B5(5)]LDAAFN[PyrS2″][3Thi][Bta]Q-NH2 (staple 1-4, 4-11) [Ac-PL3-Asp-Npg-B5-Leu-Asp-Ala-Ala-Phe-Asn-PyrS2-3Thi-BztA-Gln-NH2] | 8660 | – | –
Ac-[αAllylPro]D[tBuAla][B5(3)]NDAAFN[PyrS2″][3Thi][Bta]Q-NH2 (staple 1-4, 4-11) [Ac-PL3-Asp-Npg-B5-Asn-Asp-Ala-Ala-Phe-Asn-PyrS2-3Thi-BztA-Gln-NH2] | 32 | – | –
Ac-[αAllylPro]DA[B5]DEAAFV[S8][Ala(cPent)][Bta]Q-NH2 (staple 1-4, 4-11) [I-393] | – | 1950 | EC50 [6]: 1950 nM
Ac-[αAllylPro]D[tBuAla][B5(3)]DTAAFT[PyrS2″][Phe(3-CF3)][Bta]S-NH2 (staple 1-4, 4-11) [I-1271] | – | – | EC50 [1]: 682 nM; IC50 [2]: 682 nM
Ac-[αAllylPro]S[tBuAla][B5(5)]DDAAFL[PyrS2″][3Thi][Bta]Q-NH2 (staple 1-4, 4-11) [Ac-PL3-Ser-Npg-B5-Asp-Asp-Ala-Ala-Phe-Leu-PyrS2-3Thi-BztA-Gln-NH2] | 550 | – | –
Ac-[αAllylPro]DA[B5(4)]D[TfeGA]AA[Phe(3-Me)]Q[S8][Phe(3-F)][Bta]Q-NH2 (staple 1-4, 4-11) [I-404] | – | 1850 | EC50 [4]: 1850 nM
Ac-[αAllylPro]D[tBuAla][B5(5)]SDAAFL[PyrS2″][3Thi][Bta]Q-NH2 (staple 1-4, 4-11) [Ac-PL3-Asp-Npg-B5-Ser-Asp-Ala-Ala-Phe-Leu-PyrS2-3Thi-BztA-Gln-NH2] | 479 | – | –
Ac-[αAllylPro]D[tBuAla][B5(5)]QDAAFN[PyrS2″][3Thi][Bta]Q-NH2 (staple 1-4, 4-11) [Ac-PL3-Asp-Npg-B5-Gln-Asp-Ala-Ala-Phe-Asn-PyrS2-3Thi-BztA-Gln-NH2] | 56 | – | –
Butoxycarbonyl-[αAllylPro]D[tBuAla][B5(4)]D[Phe(3-COOH)]AAFL[PyrS2″][Phe(2-Cl)][Bta]A-NH2 (staple 1-4, 4-11) [I-2304] | – | – | IC50 [7]: 511 nM
Ac-[αAllylPro]S[tBuAla][B5(5)]DDAAFN[PyrS2″][3Thi][Bta]Q-NH2 (staple 1-4, 4-11) [Ac-PL3-Ser-Npg-B5-Asp-Asp-Ala-Ala-Phe-Asn-PyrS2-3Thi-BztA-Gln-NH2] | 511 | – | –
Ac-[αAllylPro]Q[tBuAla][B5(5)]DDAAFN[PyrS2″][3Thi][Bta]Q-NH2 (staple 1-4, 4-11) [Ac-PL3-Gln-Npg-B5-Asp-Asp-Ala-Ala-Phe-Asn-PyrS2-3Thi-BztA-Gln-NH2] | 389 | – | –
Ac-[αAllylPro]D[tBuAla][B5(3)]NDAAFL[PyrS2″][3Thi][Bta]Q-NH2 (staple 1-4, 4-11) [Ac-PL3-Asp-Npg-B5-Asn-Asp-Ala-Ala-Phe-Leu-PyrS2-3Thi-BztA-Gln-NH2] | 40 | – | –
Ac-[αAllylPro]DA[B5(4)]DEAAFV[S8][Phe(3-Me)][Bta]Q-NH2 (staple 1-4, 4-11) [I-395] | – | 5000 | EC50 [6]: 5000 nM
Ac-[αAllylPro]D[tBuAla][B5(3)]DTAAFT[PyrS2″][2Nal][Bta]S-NH2 (staple 1-4, 4-11) [I-1270] | – | – | EC50 [1]: 3700 nM; IC50 [2]: 3700 nM

Continued, in another order:

IC50 [3] [nM] | IC50 [5] [nM] | Binder | further results
216 | – | Ac-[αAllylPro]D[tBuAla][B5(5)][hSer]DAAFL[PyrS2″][3Thi][Bta]Q-NH2 (staple 1-4, 4-11) [Ac-PL3-Asp-Npg-B5-Hse-Asp-Ala-Ala-Phe-Leu-PyrS2-3Thi-BztA-Gln-NH2] | –
14 | – | Ac-[αAllylPro]N[tBuAla][B5(3)]DDAAFL[PyrS2″][3Thi][Bta]Q-NH2 (staple 1-4, 4-11) [Ac-PL3-Asn-Npg-B5-Asp-Asp-Ala-Ala-Phe-Leu-PyrS2-3Thi-BztA-Gln-NH2] | –
– | 3820 | Ac-[αAllylPro]DA[B5(3)]D[TfeGA]AA[Phe(3-Me)]Q[SeN″][Phe(3-F)][Bta]Q-NH2 (staple 1-4, 4-11) [I-405] | EC50 [4]: 3820 nM
305 | – | Ac-[αAllylPro]Q[tBuAla][B5(5)]DDAAFL[PyrS2″][3Thi][Bta]Q-NH2 (staple 1-4, 4-11) [Ac-PL3-Gln-Npg-B5-Asp-Asp-Ala-Ala-Phe-Leu-PyrS2-3Thi-BztA-Gln-NH2] | –
– | 120 | Ac-[αAllylPro]DI[B5(3)]DEAAFQ[S8]F[Bta]-NH2 (staple 1-4, 4-11; also: staple isomer composition, earlier eluting HPLC peak) [I-408] | EC50 [4]: 120 nM
– | 70 | Ac-[αAllylPro]DI[B5(3)]DEAAFQ[S8]F[Bta]-NH2 (staple 1-4, 4-11; also: staple isomer composition, later eluting HPLC peak) [I-409] | EC50 [4]: 70 nM
– | 5000 | Ac-[αAllylPro]DA[B5(4)]D[2Thi]AAFV[S8][Phe(3-F)][Bta]Q-NH2 (staple 1-4, 4-11) [I-402] | EC50 [4]: 5000 nM
115 | – | Ac-[αAllylPro]D[tBuAla][B5(5)]QDAAFL[PyrS2″][3Thi][Bta]Q-NH2 (staple 1-4, 4-11) [Ac-PL3-Asp-Npg-B5-Gln-Asp-Ala-Ala-Phe-Leu-PyrS2-3Thi-BztA-Gln-NH2] | –
– | 134 | Ac-[αAllylPro]DA[B5(4)]DEAA[2Thi]Q[S8][Phe(3-F)][Bta]Q-NH2 (staple 1-4, 4-11) [I-401] | EC50 [4]: 134 nM
– | 189 | Ac-[αAllylPro]D[Nle][B5(3)]DEAAFA[S8]F[Bta]Q-NH2 (staple 1-4, 4-11) [I-411] | EC50 [4]: 189 nM
349 | – | Ac-[αAllylPro]D[tBuAla][B5(5)]SDAAFN[PyrS2″][3Thi][Bta]Q-NH2 (staple 1-4, 4-11) [Ac-PL3-Asp-Npg-B5-Ser-Asp-Ala-Ala-Phe-Asn-PyrS2-3Thi-BztA-Gln-NH2] | –
116 | – | Ac-[αAllylPro]D[tBuAla][B5(5)][hSer]DAAFN[PyrS2″][3Thi][Bta]Q-NH2 (staple 1-4, 4-11) [Ac-PL3-Asp-Npg-B5-Hse-Asp-Ala-Ala-Phe-Asn-PyrS2-3Thi-BztA-Gln-NH2] | –
